Measured values as given in IntAct's records for PubMed 19804756.

How the values were obtained:
[1] = molecular target: nbs1_schpo nbs1 (UniProt O43070)
[2] = molecular target: nbn_human NBN (UniProt O60934)
nbn_human NBN, sequence (O60934 whole entry): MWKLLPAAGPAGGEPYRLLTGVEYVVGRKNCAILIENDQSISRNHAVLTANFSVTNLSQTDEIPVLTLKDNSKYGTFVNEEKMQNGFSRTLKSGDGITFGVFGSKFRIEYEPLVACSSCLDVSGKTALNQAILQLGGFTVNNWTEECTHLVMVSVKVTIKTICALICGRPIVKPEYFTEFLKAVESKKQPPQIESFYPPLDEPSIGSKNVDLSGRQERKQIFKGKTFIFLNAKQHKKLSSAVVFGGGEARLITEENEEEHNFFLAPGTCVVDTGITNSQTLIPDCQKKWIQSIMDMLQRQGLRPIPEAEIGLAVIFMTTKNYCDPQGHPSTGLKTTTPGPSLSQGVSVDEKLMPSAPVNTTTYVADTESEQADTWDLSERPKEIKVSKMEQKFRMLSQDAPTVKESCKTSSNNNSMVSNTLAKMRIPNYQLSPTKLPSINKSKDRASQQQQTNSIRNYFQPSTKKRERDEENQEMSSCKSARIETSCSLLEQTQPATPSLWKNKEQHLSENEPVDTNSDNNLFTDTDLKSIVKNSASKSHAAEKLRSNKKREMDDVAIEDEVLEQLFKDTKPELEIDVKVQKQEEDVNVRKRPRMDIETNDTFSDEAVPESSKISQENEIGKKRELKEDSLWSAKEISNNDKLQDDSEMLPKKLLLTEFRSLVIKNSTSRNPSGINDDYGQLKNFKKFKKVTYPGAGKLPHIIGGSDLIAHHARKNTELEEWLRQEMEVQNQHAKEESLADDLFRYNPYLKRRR

nbs1_schpo nbs1, sequence (O43070 whole entry): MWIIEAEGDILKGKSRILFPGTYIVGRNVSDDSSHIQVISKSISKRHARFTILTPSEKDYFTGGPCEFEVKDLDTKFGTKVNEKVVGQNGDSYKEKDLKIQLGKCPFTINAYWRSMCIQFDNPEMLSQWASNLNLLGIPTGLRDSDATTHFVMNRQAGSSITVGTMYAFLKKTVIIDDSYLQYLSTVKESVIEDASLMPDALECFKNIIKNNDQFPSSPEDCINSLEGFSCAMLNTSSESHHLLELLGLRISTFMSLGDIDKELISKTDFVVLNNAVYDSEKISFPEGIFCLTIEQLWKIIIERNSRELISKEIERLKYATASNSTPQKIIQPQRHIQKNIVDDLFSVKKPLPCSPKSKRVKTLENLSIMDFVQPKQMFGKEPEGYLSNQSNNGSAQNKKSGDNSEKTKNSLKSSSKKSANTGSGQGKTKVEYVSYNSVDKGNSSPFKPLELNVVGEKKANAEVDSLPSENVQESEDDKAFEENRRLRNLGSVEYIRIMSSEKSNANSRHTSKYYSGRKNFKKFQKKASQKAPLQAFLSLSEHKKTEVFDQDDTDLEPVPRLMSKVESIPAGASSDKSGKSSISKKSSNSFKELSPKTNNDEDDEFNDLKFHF

| effect of a mutation on the interaction [1] | effect of a mutation on the interaction [2] | Substance |
| --- | --- | --- |
| decreasing interaction |  | Mediator of DNA damage checkpoint protein 1 (Homo sapiens), Q14676 E334A |
|  | decreasing interaction | Mediator of DNA damage checkpoint protein 1 (Homo sapiens), Q14676 T331S |
